Values belong to the binder of their own block, whether it stands above or below them.
Molecular target: T1, SF3b core complex, 6xHis-tagged (SF3B1 454–1304, 6xHis-SF3B3, SF3B5, PHF5A) (human, UniProt O75533 454-1304; Q15393 1-1217; Q9BWJ5 1-86; Q7RTV0 1-110)
T1 construct: SF3B1, human, residues 454-1304; SF3B3, human, full-length cDNA; SF3B5, human, full-length cDNA; PHF5A, human, full-length cDNA; the 6xHis tag replaces the N-terminal Twin-Strep tag of SF3B3, so it is probably N-terminal; also called SF3b core (6xHis-tagged); source: HEK293F, co-transfected, purified; prepared as the SF3b core except that the Strep-tag on SF3B3 was replaced by a 6xHis tag; …
Test: BLI; 6xHis-tagged SF3b core (20 µg/mL) captured on Ni-NTA biosensors; Flag-DDX42 or Flag-DDX46 as analyte; lysis buffer (20 mM HEPES-KOH pH 7.9, 150 mM NaCl, 1.5 mM MgCl2, 0.05% NP-40); about 100 s association, 100 s dissociation; 1:1 model; apparent constants
Details: both partners purified

T1 sequence (O75533 454-1304, chain 1 of 4): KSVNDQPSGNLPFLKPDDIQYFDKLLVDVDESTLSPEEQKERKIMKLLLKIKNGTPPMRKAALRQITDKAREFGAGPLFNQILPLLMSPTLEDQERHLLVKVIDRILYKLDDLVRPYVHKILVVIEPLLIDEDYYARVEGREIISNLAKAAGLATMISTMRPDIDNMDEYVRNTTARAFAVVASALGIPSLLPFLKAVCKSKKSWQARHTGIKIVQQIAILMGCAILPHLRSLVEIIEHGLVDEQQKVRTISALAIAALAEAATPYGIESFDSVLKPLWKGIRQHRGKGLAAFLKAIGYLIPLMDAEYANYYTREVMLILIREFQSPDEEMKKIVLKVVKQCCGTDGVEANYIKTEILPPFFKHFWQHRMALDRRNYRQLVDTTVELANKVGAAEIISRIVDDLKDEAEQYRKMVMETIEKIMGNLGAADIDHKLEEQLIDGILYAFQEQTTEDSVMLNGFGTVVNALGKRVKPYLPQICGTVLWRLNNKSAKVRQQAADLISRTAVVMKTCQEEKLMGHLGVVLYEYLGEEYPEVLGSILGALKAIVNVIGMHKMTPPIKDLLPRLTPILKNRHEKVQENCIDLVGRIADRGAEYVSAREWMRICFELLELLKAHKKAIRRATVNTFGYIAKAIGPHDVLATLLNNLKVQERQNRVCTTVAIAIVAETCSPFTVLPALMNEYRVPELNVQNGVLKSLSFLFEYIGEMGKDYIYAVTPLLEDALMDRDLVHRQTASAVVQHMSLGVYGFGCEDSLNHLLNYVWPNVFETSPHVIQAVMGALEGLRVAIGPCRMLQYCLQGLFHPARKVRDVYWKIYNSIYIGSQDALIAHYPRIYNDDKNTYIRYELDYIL
T1 sequence (Q15393 whole entry, chain 2 of 4, the tested form may be a part): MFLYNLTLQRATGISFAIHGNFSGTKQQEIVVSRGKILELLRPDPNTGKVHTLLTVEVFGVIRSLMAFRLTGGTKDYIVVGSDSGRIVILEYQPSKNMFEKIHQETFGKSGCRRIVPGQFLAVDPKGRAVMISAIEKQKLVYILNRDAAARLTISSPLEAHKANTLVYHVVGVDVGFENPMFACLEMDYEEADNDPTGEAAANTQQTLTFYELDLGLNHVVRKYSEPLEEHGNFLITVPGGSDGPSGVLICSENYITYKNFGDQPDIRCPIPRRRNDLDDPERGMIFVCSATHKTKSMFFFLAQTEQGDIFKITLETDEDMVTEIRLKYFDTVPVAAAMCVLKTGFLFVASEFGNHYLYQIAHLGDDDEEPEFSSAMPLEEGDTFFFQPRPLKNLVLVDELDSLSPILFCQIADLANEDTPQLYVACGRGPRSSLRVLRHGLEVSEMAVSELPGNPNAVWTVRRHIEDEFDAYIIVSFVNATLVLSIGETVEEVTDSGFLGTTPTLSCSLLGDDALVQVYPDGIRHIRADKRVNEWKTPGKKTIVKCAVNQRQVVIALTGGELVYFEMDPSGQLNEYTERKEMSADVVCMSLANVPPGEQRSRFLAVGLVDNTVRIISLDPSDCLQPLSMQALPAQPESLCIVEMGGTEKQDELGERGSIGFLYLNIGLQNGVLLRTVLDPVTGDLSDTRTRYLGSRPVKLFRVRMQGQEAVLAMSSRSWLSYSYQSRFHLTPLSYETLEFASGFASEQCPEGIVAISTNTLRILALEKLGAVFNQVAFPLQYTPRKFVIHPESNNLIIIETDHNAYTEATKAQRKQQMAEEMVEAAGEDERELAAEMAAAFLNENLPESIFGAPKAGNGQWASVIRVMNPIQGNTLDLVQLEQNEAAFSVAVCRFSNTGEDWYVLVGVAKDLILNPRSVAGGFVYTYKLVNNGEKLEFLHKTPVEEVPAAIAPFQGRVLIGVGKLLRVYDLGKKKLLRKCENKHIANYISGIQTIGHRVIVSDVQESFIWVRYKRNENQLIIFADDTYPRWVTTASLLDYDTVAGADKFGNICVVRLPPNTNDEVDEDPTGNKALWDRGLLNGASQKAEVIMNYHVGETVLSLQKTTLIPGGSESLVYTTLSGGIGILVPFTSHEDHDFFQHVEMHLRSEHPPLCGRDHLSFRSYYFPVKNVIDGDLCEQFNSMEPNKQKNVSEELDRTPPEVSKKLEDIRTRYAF
T1 sequence (Q9BWJ5 whole entry, chain 3 of 4, the tested form may be a part): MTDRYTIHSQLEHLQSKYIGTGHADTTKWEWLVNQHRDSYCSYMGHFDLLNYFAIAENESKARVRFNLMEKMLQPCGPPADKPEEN
T1 sequence (Q7RTV0 whole entry, chain 4 of 4, the tested form may be a part): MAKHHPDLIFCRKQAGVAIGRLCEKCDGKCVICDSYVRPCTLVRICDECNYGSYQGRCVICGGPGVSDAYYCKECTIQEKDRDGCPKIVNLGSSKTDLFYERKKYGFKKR

Kd: 66 nM
B1: Flag-DDX46 (natural protein)
chain: MGRESRHYRKRSASRGRSGSRSRSRSPSDKRSKRGDDRRSRSRDRDRRRERSRSRDKRRSRSRDRKRLRRSRSRERDRSRERRRSRSRDRRRSRSRSRGRRSRSSSPGNKSKKTENRSRSKEKTDGGESSKEKKKDKDDKEDEKEKDAGNFDQNKLEEEMRKRKERVEKWREEQRKKAMENIGELKKEIEEMKQGKKWSLEDDDDDEDDPAEAEKEGNEMEGEELDPLDAYMEEVKEEVKKFNMRSVKGGGGNEKKSGPTVTKVVTVVTTKKAVVDSDKKKGELMENDQDAMEYSSEEEEVDLQTALTGYQTKQRKLLEPVDHGKIEYEPFRKNFYVEVPELAKMSQEEVNVFRLEMEGITVKGKGCPKPIKSWVQCGISMKILNSLKKHGYEKPTPIQTQAIPAIMSGRDLIGIAKTGSGKTIAFLLPMFRHIMDQRSLEEGEGPIAVIMTPTRELALQITKECKKFSKTLGLRVVCVYGGTGISEQIAELKRGAEIIVCTPGRMIDMLAANSGRVTNLRRVTYVVLDEADRMFDMGFEPQVMRIVDNVRPDRQTVMFSATFPRAMEALARRILSKPIEVQVGGRSVVCSDVEQQVIVIEEEKKFLKLLELLGHYQESGSVIIFVDKQEHADGLLKDLMRASYPCMSLHGGIDQYDRDSIINDFKNGTCKLLVATSVAARGLDVKHLILVVNYSCPNHYEDYVHRAGRTGRAGNKGYAYTFITEDQARYAGDIIKALELSGTAVPPDLEKLWSDFKDQQKAEGKIIKKSSGFSGKGFKFDETEQALANERKKLQKAALGLQDSDDEDAAVDIDEQIESMFNSKKRVKDMAAPGTSSVPAPTAGNAEKLEIAKRLALRINAQKNLGIESQDVMQQATNAILRGGTILAPTVSAKTIAEQLAEKINAKLNYVPLEKQEEERQDGGQNESFKRYEEELEINDFPQTARWKVTSKEALQRISEYSEAAITIRGTYFPPGKEPKEGERKIYLAIESANELAVQKAKAEITRLIKEELIRLQNSYQPTNKGRYKVL
notes: DDX46, human; source: HEK293F, overexpressed, purified (anti-Flag M2, Hitrap Heparin)

Kd: 23 nM
B2: Flag-DDX42 (full-length) (natural protein)
chain: MNWNKGGPGTKRGFGFGGFAISAGKKEEPKLPQQSHSAFGATSSSSGFGKSAPPQLPSFYKIGSKRANFDEENAYFEDEEEDSSNVDLPYIPAENSPTRQQFHSKPVDSDSDDDPLEAFMAEVEDQAARDMKRLEEKDKERKNVKGIRDDIEEEDDQEAYFRYMAENPTAGVVQEEEEDNLEYDSDGNPIAPTKKIIDPLPPIDHSEIDYPPFEKNFYNEHEEITNLTPQQLIDLRHKLNLRVSGAAPPRPGSSFAHFGFDEQLMHQIRKSEYTQPTPIQCQGVPVALSGRDMIGIAKTGSGKTAAFIWPMLIHIMDQKELEPGDGPIAVIVCPTRELCQQIHAECKRFGKAYNLRSVAVYGGGSMWEQAKALQEGAEIVVCTPGRLIDHVKKKATNLQRVSYLVFDEADRMFDMGFEYQVRSIASHVRPDRQTLLFSATFRKKIEKLARDILIDPIRVVQGDIGEANEDVTQIVEILHSGPSKWNWLTRRLVEFTSSGSVLLFVTKKANAEELANNLKQEGHNLGLLHGDMDQSERNKVISDFKKKDIPVLVATDVAARGLDIPSIKTVINYDVARDIDTHTHRIGRTGRAGEKGVAYTLLTPKDSNFAGDLVRNLEGANQHVSKELLDLAMQNAWFRKSRFKGGKGKKLNIGGGGLGYRERPGLGSENMDRGNNNVMSNYEAYKPSTGAMGDRLTAMKAAFQSQYKSHFVAASLSNQKAGSSAAGASGWTSAGSLNSVPTNSAQQGHNSPDSPVTSAAKGIPGFGNTGNISGAPVTYPSAGAQGVNNTASGNNSREGTGGSNGKRERYTENRGSSRHSHGETGNRHSDSPRHGDGGRHGDGYRHPESSSRHTDGHRHGENRHGGSAGRHGENRGANDGRNGESRKEAFNRESKMEPKMEPKVDSSKMDKVDSKTDKTADGFAVPEPPKRKKSRWDS
notes: DDX42, human, full-length cDNA; N-plug residues 69-81, helix alpha-3 114-135, helices alpha-2/alpha-1 145-167, helicase domain 207-643; source: HEK293F, transfected (pCAG): co-expressed with the SF3b core; alone as bait in lysate; not shown: Flag, N-terminal, kept

Reference: PMC9935549, “Mechanisms of the RNA helicases DDX42 and DDX46 in human U2 snRNP assembly” (Nature Communications, 2023)
